From paper PMC8064889 (2021)

Target: SARS-CoV-2 RBD, His6-tagged, for biolayer interferometry (SARS-CoV-2, UniProt P0DTC2 319-541)
Assay: BLI

B1: 47D1 Fab (Fab, V domains shown)
VH: QVQLVQSGAEVKKPGSSVRVSCKASGGTFSTYPISWVRQAPGQGLEWMGGIIPIFGTAKSAQKFQGRVTITADEFTSTAYMEMSSLRSEDTAMYYCAREGRRYGSGWYISTGYFDYWGQGTLVTVSS
VL: QLVLTQPASVSGSPGQSIIVSCTGTSSDVGGYKFVSWYQQHPGKAPRVMIYDVSNRPSGVSNRFSGSKSGNTASLTISGLQADDEADYYCSSYTNSSTVVFGGGTKVTVL
**Q.** How did the Kd turn out when B1 was run?
**A.** Its Kd is 2 nM.
